In PMC11784390, “Conformational changes in and translocation of small proteins: insights into the ejection mechanism of podophages” (Journal of Virology, 2024):

T1: portal protein gp8 (bacteriophage T7, UniProt P03728 1-536)
T1 construct: portal protein gp8 of bacteriophage T7, as it stands in the virion; Native virion protein; also called dodecameric portal; source: T7 virions propagated in E. coli, purified (PEG precipitation, CsCl ultracentrifugation); copies: 12
T1 sequence (looked up): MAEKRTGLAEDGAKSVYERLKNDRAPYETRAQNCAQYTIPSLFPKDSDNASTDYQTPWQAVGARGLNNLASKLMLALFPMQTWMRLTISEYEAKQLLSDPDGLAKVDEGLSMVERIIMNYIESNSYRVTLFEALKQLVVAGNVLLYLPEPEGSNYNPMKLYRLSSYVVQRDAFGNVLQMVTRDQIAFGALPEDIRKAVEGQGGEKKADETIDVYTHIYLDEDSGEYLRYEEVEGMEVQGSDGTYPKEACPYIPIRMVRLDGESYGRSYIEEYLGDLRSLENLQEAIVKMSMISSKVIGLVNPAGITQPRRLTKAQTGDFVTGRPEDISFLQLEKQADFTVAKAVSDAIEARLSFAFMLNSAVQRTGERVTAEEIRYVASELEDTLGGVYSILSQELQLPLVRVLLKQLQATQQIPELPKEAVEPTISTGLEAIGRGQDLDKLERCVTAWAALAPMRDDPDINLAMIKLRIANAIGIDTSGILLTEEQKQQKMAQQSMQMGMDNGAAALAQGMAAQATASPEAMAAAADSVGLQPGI

T2: nozzle protein gp12 (bacteriophage T7, UniProt P03747 1-794)
T2 construct: nozzle protein gp12 of bacteriophage T7, as it stands in the virion; Native virion protein; also called tail nozzle; source: T7 virions propagated in E. coli, purified (PEG precipitation, CsCl ultracentrifugation)
T2 sequence (looked up): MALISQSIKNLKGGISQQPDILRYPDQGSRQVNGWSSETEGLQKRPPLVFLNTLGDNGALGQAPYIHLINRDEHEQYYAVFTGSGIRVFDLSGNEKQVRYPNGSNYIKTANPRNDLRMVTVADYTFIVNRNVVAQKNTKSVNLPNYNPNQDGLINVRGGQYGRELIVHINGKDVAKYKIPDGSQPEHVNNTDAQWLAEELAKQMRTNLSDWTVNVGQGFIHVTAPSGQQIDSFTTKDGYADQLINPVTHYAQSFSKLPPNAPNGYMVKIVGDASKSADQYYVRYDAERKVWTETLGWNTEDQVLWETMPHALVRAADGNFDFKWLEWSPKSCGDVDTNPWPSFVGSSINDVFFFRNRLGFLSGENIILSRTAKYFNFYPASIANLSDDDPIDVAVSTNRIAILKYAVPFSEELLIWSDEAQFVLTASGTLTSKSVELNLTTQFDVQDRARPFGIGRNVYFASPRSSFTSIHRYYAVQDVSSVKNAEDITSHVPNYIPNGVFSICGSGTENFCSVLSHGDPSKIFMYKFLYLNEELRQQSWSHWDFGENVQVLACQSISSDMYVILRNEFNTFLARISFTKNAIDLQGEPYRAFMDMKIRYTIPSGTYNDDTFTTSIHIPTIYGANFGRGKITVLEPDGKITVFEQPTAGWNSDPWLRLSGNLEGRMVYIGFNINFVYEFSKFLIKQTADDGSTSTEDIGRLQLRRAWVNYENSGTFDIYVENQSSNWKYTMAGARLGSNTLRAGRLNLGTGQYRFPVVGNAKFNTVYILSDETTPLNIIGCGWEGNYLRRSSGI

T3: core protein gp16 (bacteriophage T7, UniProt P03726 1-1318)
T3 construct: core protein gp16 of bacteriophage T7, as it stands in the mature virion; Four-fold ring in the core of mature T7; source: T7 virions propagated in E. coli, purified (PEG precipitation, CsCl ultracentrifugation)
T3 sequence (looked up): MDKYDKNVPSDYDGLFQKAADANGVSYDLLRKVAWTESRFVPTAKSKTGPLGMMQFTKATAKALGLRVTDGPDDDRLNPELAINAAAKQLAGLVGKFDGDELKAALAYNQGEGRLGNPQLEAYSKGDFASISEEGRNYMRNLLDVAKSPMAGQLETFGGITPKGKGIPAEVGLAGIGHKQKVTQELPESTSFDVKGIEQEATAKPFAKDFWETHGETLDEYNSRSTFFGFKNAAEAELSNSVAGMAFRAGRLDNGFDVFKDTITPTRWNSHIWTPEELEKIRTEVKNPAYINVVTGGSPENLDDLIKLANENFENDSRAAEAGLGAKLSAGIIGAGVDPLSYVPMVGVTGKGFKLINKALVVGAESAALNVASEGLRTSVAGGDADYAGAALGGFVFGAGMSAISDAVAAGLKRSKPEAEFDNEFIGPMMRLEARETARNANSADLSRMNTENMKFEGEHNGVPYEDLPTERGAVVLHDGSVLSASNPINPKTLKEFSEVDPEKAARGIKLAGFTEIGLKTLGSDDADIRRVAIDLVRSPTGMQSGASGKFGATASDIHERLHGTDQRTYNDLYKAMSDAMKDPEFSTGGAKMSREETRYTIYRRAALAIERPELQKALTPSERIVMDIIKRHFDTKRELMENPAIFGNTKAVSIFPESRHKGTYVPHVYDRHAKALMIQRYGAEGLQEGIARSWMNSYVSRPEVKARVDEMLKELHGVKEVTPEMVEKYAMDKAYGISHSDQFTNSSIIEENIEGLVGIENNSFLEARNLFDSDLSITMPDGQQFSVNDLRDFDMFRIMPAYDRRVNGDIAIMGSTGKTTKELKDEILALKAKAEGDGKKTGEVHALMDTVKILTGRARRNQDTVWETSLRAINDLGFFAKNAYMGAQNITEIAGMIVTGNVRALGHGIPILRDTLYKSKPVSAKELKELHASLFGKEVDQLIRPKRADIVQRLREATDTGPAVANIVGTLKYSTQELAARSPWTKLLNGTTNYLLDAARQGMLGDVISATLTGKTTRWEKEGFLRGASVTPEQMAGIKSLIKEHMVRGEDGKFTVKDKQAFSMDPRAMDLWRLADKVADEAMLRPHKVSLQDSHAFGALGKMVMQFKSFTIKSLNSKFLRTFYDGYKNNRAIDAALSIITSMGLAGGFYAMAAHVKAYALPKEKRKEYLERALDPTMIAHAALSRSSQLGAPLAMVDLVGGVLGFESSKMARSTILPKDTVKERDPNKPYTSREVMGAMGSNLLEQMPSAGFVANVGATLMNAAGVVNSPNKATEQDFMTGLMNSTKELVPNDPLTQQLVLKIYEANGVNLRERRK

B1: adaptor protein gp11 (natural protein, bacteriophage T7, UniProt P03746 1-196, looked up)
chain: MRSYDMNVETAAELSAVNDILASIGEPPVSTLEGDANADAANARRILNKINRQIQSRGWTFNIEEGITLLPDVYSNLIVYSDDYLSLMSTSGQSIYVNRGGYVYDRTSQSDRFDSGITVNIIRLRDYDEMPECFRYWIVTKASRQFNNRFFGAPEVEGVLQEEEDEARRLCMEYEMDYGGYNMLDGDAFTSGLLTR
notes: adaptor protein gp11 of bacteriophage T7, as it stands in the virion; Native virion protein; source: T7 virions propagated in E. coli, purified (PEG precipitation, CsCl ultracentrifugation); copies: 12
B2: core protein gp15 (natural protein, bacteriophage T7, UniProt P03725 1-747, looked up)
chain: MSKIESALQAAQPGLSRLRGGAGGMGYRAATTQAEQPRSSLLDTIGRFAKAGADMYTAKEQRARDLADERSNEIIRKLTPEQRREALNNGTLLYQDDPYAMEALRVKTGRNAAYLVDDDVMQKIKEGVFRTREEMEEYRHSRLQEGAKVYAEQFGIDPEDVDYQRGFNGDITERNISLYGAHDNFLSQQAQKGAIMNSRVELNGVLQDPDMLRRPDSADFFEKYIDNGLVTGAIPSDAQATQLISQAFSDASSRAGGADFLMRVGDKKVTLNGATTTYRELIGEEQWNALMVTAQRSQFETDAKLNEQYRLKINSALNQEDPRTAWEMLQGIKAELDKVQPDEQMTPQREWLISAQEQVQNQMNAWTKAQAKALDDSMKSMNKLDVIDKQFQKRINGEWVSTDFKDMPVNENTGEFKHSDMVNYANKKLAEIDSMDIPDGAKDAMKLKYLQADSKDGAFRTAIGTMVTDAGQEWSAAVINGKLPERTPAMDALRRIRNADPQLIAALYPDQAELFLTMDMMDKQGIDPQVILDADRLTVKRSKEQRFEDDKAFESALNASKAPEIARMPASLRESARKIYDSVKYRSGNESMAMEQMTKFLKESTYTFTGDDVDGDTVGVIPKNMMQVNSDPKSWEQGRDILEEARKGIIASNPWITNKQLTMYSQGDSIYLMDTTGQVRVRYDKELLSKVWSENQKKLEEKAREKALADVNKRAPIVAATKAREAAAKRVREKRKQTPKFIYGRKE
notes: core protein gp15 of bacteriophage T7, as it stands in the mature virion; Eight-fold ring in the core of mature T7; source: T7 virions propagated in E. coli, purified (PEG precipitation, CsCl ultracentrifugation)

Assays:
[1] = biological target: the molecule itself; assay: cryo-EM structure; mature T7 virions, in situ; entire particle asymmetric 6.1 Å; local reconstructions of core complex 3 Å (four-fold), portal 2.5 Å (twelve-fold), portal–tail complex 2.7 Å (six-fold)
portal protein gp8 = biological target: T1, portal protein gp8; assay: cryo-EM structure; DNA-ejected T7: purified mature T7 incubated with rough LPS (250 µg/mL) at 37°C for 3 h; entire particle asymmetric 8.2 Å; portal–tail complex 3.5 Å (six-fold); details: both partners purified
nozzle protein gp12 = biological target: T2, nozzle protein gp12; assay: as above; details: both partners purified
core protein gp16 = biological target: T3, core protein gp16; assay: cryo-EM structure; mature T7 virions, in situ; entire particle asymmetric 6.1 Å; local reconstructions of core complex 3 Å (four-fold), portal 2.5 Å (twelve-fold), portal–tail complex 2.7 Å (six-fold); details: both partners purified

| Binder | stoichiometry N [1] | binding result (portal protein gp8) | binding result (nozzle protein gp12) | binding result (core protein gp16) |
| --- | --- | --- | --- | --- |
| B1 | 12 | binds | binds |  |
| B2 | 8 |  |  | binds |
